Measured values reported in patent US20250026849A1 (ARCELLX, published 2025).
Where a chain is given by its changes, count along the chain named.

T1: CD123 (Homo sapiens (Human), UniProt P26951 19-305, limits assumed)
T1 sequence: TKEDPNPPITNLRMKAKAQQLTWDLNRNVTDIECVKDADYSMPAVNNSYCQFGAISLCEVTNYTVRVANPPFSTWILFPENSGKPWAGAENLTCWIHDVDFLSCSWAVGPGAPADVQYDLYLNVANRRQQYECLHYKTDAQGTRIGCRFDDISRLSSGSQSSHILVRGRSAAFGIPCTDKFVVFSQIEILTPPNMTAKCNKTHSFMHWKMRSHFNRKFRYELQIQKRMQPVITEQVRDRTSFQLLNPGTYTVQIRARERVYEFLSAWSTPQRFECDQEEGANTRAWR

T2: extracellular domain of human CS1 protein (human, UniProt Q9NQ25 23-226)
T2 construct: Panning target; also called CS1 mature ECD
T2 sequence: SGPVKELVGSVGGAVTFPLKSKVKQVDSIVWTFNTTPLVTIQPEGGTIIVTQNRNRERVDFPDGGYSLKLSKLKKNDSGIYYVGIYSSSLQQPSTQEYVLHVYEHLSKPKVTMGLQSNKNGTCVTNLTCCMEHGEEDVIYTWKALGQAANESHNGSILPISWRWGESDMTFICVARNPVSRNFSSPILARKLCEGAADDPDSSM

B1: D-domain SEQ ID NO: 341 (designed binder)
chain: MGSWIEFHERLWAIEDRLWALGGSEAELAAFEKEIAAFESELQAYKGKGNPEVESLREMAASIRHGLQAYRHN
B2: D-domain SEQ ID NO: 342 (designed binder)
chain: B1 chain with I5F, H8Y, E15D, S55W, M59E, H65S, G66S
B3: cc09 CS1 ADBD (SEQ ID NO: 788) (designed binder)
chain: MGSWNEFKLELAFIKDWLEALGGSEAELANFEEAIAEFEAGLQGYKGKGNPEVEALRKEAAAIRDELQAYRHN
B4: HER2-binding D domain SEQ ID NO: 838 (designed binder)
chain: MGSWWEFNVRLSAIRYRLLALGGSEAELAAFEKEIAAFESELQAYKGKGNPEVEDLRASAAQIRAMLQAYRHN
B5: HER2-binding D domain SEQ ID NO: 840 (designed binder)
chain: B4 chain with N8H, V9I, S12R, R15K, L19Y, A58I, S59L, Q62E, M66Q
B6: HER2-binding D domain SEQ ID NO: 839 (designed binder)
chain: B4 chain with V9M, R15K, L19Y, D55I, A58R, S59L, Q62D, A65E, M66R
notes: also called eb10
B7: eb03 HER2 ADBD (SEQ ID NO: 804) (designed binder)
chain: MGSWAEFRWRLHAIWLQLGALGGSEAELAAFEKEIAAFESELQAYKGKGNPEVEWLRQDAAQIKYILQAYRHN
B8: cc01 CS1 ADBD (SEQ ID NO: 780) (designed binder)
chain: MGSWVEFEARLSAIYERLEALGGSEAELAAFEKEIAAFESELQAYKGKGNPEVEKLRRHAAGIRSNLQAYRHN
B9: cc08 CS1 ADBD (SEQ ID NO: 787) (designed binder)
chain: B8 chain with E8N, A9E, S12H, E16L, E19D, K55T, S65W, N66Q
B10: cc02 CS1 ADBD (SEQ ID NO: 781) (designed binder)
chain: B8 chain with E8F, A9V, S12D, Y15W, K55T, R58F, S65Q, N66K
B11: cc10 CS1 ADBD (SEQ ID NO: 789) (designed binder)
chain: B8 chain with V5M, S12E, Y15W, E16D, K55S, R58F, S65Q, N66H
B12: D-domain SEQ ID NO: 340 (designed binder)
chain: MGSWIEFNMRVLAIEDRLWALGGSEAELAAFEKEIAAFESELQAYKGKGNPEVESLRYEACLDPWSSAAYRHN
B13: cc12 CS1 ADBD (SEQ ID NO: 791) (designed binder)
chain: MGSWHHFKMHLAGIKLQLEALGGSEAELAEFEEWIADFEGALQDYKGKGNPEVEALRKEAAAIRDELQAYRHN
B14: D-domain SEQ ID NO: 343 (designed binder)
chain: MGSWFEFWDRLEAIDDRLFALGGSEAELAAFEKEIAAFESELQAYKGKGNPEVESLRYNAAEIRKELQAYRHN
B15: D-domain SEQ ID NO: 344 (designed binder)
chain: B14 chain with F5H, D9S, E12D, S55Y, Y58G, N59A, E62D, K65A
B16: D-domain SEQ ID NO: 346 (designed binder)
chain: B14 chain with F5H, F19Y, S55F, Y58E, N59E, E62Y, K65E, E66L
B17: D-domain SEQ ID NO: 347 (designed binder)
chain: B14 chain with F5E, E12F, F19W, S55T, Y58N, N59E, K65M, E66A
B18: D-domain SEQ ID NO: 345 (designed binder)
chain: B14 chain with F5Y, D9I, E54D, S55I, Y58D, N59F, E62D, K65T
B19: D-domain SEQ ID NO: 348 (designed binder)
chain: B14 chain with F5W, W8D, E12F, D16T, F19M, Y58E, N59W, E62T, K65M
B20: D domain SEQ ID NO: 800 (designed binder)
chain: MGSWHEFRWRLFAIWQRLHALGGSEAELAAFEKEIAAFESELQAYKGKGNPEVEWLRLDAALIRVMLQAYRHN

Tests used:
[1] = target: T1, CD123; test: ELISA, format not described; parameters: unit not given here
[2] = target: T2, extracellular domain of human CS1 …; test: phage display panning
[3] = target: T3, HER2 (human, UniProt P04626 23-652); test: ELISA, format not described; parameters: unit not given here
T3 construct: The ELISA is not described; also called ERBB2; CD340

[4] = target: T4, extracellular domain of human HER2 protein (human, UniProt P04626 23-652); test: phage display panning
T4 construct: Panning target; also called HER2 mature ECD; HER2 (ERBB2, CD340)

[5] = target: T5, HER2 (human, UniProt P04626 23-652); test: ELISA, format not described; parameters: unit not given here
T5 construct: also called ERBB2; CD340

| Binder | ELISA_avg [1] | binding result [2] | also measured |
| --- | --- | --- | --- |
| B1 | 3.4 | – | – |
| B2 | 6 | – | – |
| B3 | – | binds | – |
| B4 | – | – | ELISA_avg [3]: 6.73 |
| B5 | – | – | ELISA_avg [3]: 14.8 |
| B6 | – | – | ELISA_avg [3]: 3.08 |
| B7 | – | – | binding result [4]: binds |
| B8 | – | binds | – |
| B9 | – | binds | – |
| B10 | – | binds | – |
| B11 | – | binds | – |
| B12 | 3.2 | – | – |
| B13 | – | binds | – |
| B14 | 4.9 | – | – |
| B15 | 3.8 | – | – |
| B16 | 10.6 | – | – |
| B17 | 3.1 | – | – |
| B18 | 10.4 | – | – |
| B19 | 3.5 | – | – |
| B20 | – | – | ELISA_avg [5]: 10 |
